Data published in patent publication US20190367631A1 (Regeneron, published 2019).

T1: human MSR1 extracellular domain expressed with a N-terminal nonahistidine tag (human, UniProt P21757 77-451)
T1 construct: extracellular domain; also called His9-hMSR1; His-hMSR1
T1 sequence: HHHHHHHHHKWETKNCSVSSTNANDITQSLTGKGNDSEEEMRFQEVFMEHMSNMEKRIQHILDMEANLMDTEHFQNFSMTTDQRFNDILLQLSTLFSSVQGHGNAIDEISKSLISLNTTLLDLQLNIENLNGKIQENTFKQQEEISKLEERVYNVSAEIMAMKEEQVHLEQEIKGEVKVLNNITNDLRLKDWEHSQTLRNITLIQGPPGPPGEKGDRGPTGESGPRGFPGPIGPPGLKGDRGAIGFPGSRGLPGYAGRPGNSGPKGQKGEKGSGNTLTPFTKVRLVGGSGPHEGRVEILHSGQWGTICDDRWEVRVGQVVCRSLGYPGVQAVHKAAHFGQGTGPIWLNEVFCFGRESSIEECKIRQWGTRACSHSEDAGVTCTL

T2: full length human MSR1 with a C-terminal Myc tag, on HEK293.Myc.hMSR1 cells (human, UniProt P21757 1-451)
T2 construct: whole, on cells; stably expressed on engineered HEK293 cells; not shown: C-terminal Myc tag
T2 sequence (looked up): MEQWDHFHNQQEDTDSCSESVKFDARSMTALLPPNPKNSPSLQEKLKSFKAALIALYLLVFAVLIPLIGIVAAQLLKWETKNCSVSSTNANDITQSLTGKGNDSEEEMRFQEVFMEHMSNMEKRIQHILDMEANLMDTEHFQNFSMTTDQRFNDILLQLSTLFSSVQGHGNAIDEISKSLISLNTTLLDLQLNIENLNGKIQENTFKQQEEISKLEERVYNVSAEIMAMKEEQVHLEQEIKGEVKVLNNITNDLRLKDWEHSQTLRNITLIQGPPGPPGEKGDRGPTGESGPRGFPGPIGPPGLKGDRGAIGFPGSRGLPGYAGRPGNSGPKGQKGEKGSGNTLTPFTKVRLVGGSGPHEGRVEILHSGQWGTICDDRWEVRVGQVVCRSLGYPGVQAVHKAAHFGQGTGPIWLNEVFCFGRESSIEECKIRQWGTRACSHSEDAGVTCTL

T3: full length monkey MSR1 on HEK293.mfMSR1 cells (Macaca fascicularis, UniProt A0A2K5UWE2 1-451)
T3 construct: whole, on cells
T3 sequence: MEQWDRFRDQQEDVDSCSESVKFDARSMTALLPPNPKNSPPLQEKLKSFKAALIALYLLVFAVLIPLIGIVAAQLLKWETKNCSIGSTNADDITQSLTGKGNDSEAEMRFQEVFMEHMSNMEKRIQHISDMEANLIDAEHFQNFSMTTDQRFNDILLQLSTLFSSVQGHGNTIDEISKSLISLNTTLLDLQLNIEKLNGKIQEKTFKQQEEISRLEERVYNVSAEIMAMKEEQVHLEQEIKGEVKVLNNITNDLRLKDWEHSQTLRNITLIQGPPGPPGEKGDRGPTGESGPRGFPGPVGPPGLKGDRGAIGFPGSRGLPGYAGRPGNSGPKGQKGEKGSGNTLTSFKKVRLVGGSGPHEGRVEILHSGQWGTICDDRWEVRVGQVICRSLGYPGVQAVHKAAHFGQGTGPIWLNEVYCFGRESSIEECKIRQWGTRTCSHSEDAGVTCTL


Assays:
[1] = molecular target: T1, human MSR1 extracellular domain …; assay: competition ELISA, plate-coated His9-hMSR1; 100 nM antibody, competitor ligand Ac-LDL
Procedure: (§1) Buffer alone was also added to wells on each coat. […] This assay was conducted in four different assay runs.
(§2) Data analysis was performed using a sigmoidal dose-response model within Prism™ software (GraphPad).

[2] = molecular target: T1, human MSR1 extracellular domain …; assay: competition ELISA, plate-coated His9-hMSR1; 300 nM antibody, competitor ligand biot-AGE-BSA
Procedure: as §1, §2

[3] = molecular target: T1, human MSR1 extracellular domain …; assay: competition ELISA, plate-coated His9-hMSR1; 1 µM antibody, competitor ligand 10 nM Ox-LDL
Procedure: as §1, §2

[4] = molecular target: T2, full length human MSR1 with a …; assay: ECL cell binding, HEK293.Myc.hMSR1 cells, 11 nM
Procedure: (§3) All cells were washed once with 1×PBS with Ca²⁺/Mg²⁺ and counted with a Cellometer™ Auto T4 cell counter (Nexcelom Bioscience). Approximately 1.0×10⁴ cells were seeded separately onto 96-well carbon electrode plates [MULTI-ARRAY high bind plate, Meso Scale Diagnostics] and incubated for 1 hour at 37° C. Non-specific binding sites were then blocked by 2% BSA (w/v) in PBS with Ca²⁺/Mg²⁺ for 1 hour at room temperature. THP-1 cells were pre-incubated for 0.5 hours at room temperature in sample dilution buffer with: 1) 1 mg/mL Fc receptor block reagents to block Fc gamma receptors on THP-1 cell surface [whole molecule human IgG (Jackson Immunoresearch, Cat #009-000-003) for wells being tested with anti-MSR1-mFc antibodies or 2) whole molecule mlgG (Jackson Immunoresearch, Cat #015-000-003) for wells being tested with anti-MSR1-hFc antibodies. Antibody binding on HEK293.Myc.hMSR1, HEK293.mfMSR1 and HEK293 cells was tested without Fc receptor block reagents. […] Plates were then washed to remove unbound antibodies an AquaMax2000 plate washer with a cell washing head (MDS Analytical Technologies). […] Plates were washed and developed with Read Buffer (Meso Scale Diagnostics, Cat # R92TD-2) according to manufacturer's recommended procedure and luminescent signals were recorded with a SECTOR Imager 600 (Meso Scale Diagnostics). Luminescence intensity, measured in relative light units (RLU), was recorded to indicate the binding intensity of each antibody at the range of concentrations.

[5] = molecular target: T3, full length monkey MSR1 on …; assay: ECL cell binding, HEK293.mfMSR1 cells, 11 nM
Procedure: as §3

[6] = molecular target: T2, full length human MSR1 with a …; assay: cell-based or functional assay

Row | Binder | % Blocking [1] [%] | % Blocking [2] [%] | % Blocking [3] [%] | ratio of binding signal (RLU) to isotype control [4] [fold] | ratio of binding signal (RLU) to isotype control [5] [fold] | % Inhibition of Dil-Acetylated LDL uptake [6] [%] | % Inhibition of Dil-Oxidized LDL uptake [6] [%] | IC50 of Dil-Acetylated LDL uptake inhibition [6] [nM] | IC50 of Dil-Oxidized LDL uptake inhibition [6] [nM]
1 | H1H27759P2-N297Q (antibody, human IgG1, V domains shown, Human IgG1 Fc with N297Q; also called H1H27759P-N297Q) VH: EVQLVESGGGFVQPGGSLRLSCAASGFTFSSYAMSWVRQAPGKGLEWVSAISGTGSNTYYADSVKGRFTISRDNSKNTLYLQMNSLRAEDTAVYYCAKDRVTTVTYYFDYWGQGTLVTVSS VL: not shown | -45 | -19 | -62 |  |  |  |  |  | 
2 | H1xH27759P2 (antibody, V domains shown) VH: EVQLVESGGGFVQPGGSLRLSCAASGFTFSSYAMSWVRQAPGKGLEWVSAISGTGSNTYYADSVKGRFTISRDNSKNTLYLQMNSLRAEDTAVYYCAKDRVTTVTYYFDYWGQGTLVTVSS VL: not shown |  |  |  | 22 | 21 |  |  |  | 
3 | H1H27761P2-N297Q (antibody, V domains shown, Human IgG1 Fc with N297Q; also called H1H27761P-N297Q) VH: EVQLVESGGDLVQPGGSLRLSCSASGFTFNIYAMSWVRQAPGKGLEWVSGISGSGGSTYYADSVKGRFTISRDNSKNTLYFQMNSLRVEDTAVYYCAKKISSSSYYYYAMDVWGQGTTVTVSS VL: not shown | -36 | -4 | -21 |  |  |  |  |  | 
4 | H1H27760P2-N297Q (antibody, V domains shown, Human IgG1 Fc with N297Q; also called H1H27760P-N297Q) VH: EVQLVESGGGLVQPGRSLRLSCAASGFTFDAYAMHWVRQAPGKGLEWVSGISWNSGSIGYADSVKGRFTISRDNAKNSLYLQMNSLREEDTALYYCAKDKILELYYYGMDVWGQGTTVTVSS VL: not shown | -43 | -4 | -47 |  |  |  |  |  | 
5 | H2aM21228N (antibody, mouse IgG2a, V domains shown, mouse IgG2a Fc) VH: VQLVESGGGLVQPGGSLRLSCAASGFTFSDHYMDWVRQAPGKGLEWVGRTRNKANSHTTEYAASVSGRFTISRDDSKNSLYLQMNSLKTEDTAVYYCTRAGIIGTLFDYWGQGTLVTVSS VL: not shown |  |  |  | 66 | 60 | 10 | 79 | > 100 | 3.1
6 | H1H27751P-N297Q (antibody, V domains shown, Human IgG1 Fc with N297Q) VH: EVQLVESGGGLVQPGGSLRLSCAASGFTFSNYAMHWVRQAPGKGLEYVSAISSNGGSTYYADSVKGRITISRDNSKNTLYLQMGSLRAEDMAVYYCARGRPYYYYFGMDVWGQGTTVTVSS VL: not shown | -51 | -11 | -31 |  |  |  |  |  | 
7 | H2aM21229N (antibody, mouse IgG2a, V domains shown, mouse IgG2a Fc) VH: EVQLVESGGGLVKPGGSLRLSCAASGFTFSRYSMNWVRQAPGKGLEWVSSISSSSSYIYYGDTVKGRFTISRDNAKKSLYLQMNSLRAEDTAVYYCVRDRGQLVLYFDYWGQGTLVTVSS VL: DIQMTQSPASLSTSIRDRVTITCRASLSISSFLNWFQQRPGKAPKLLIYVASNLQSGVPSRFSDSGSGTDFTLTISSLQPEDFATYYCQQNYSTPPITFGQGTRLEIK |  |  |  | 78 | 27 |  | 26 |  | > 100
8 | H1H27756P-N297Q (antibody, V domains shown, Human IgG1 Fc with N297Q) VH: QVQLVESGGGVVQPGRSLRLSCAASGFTFSNYDMHWVRQAPGKGLEWMAVISYDGINKYYADSVKGRFTISRDNSKNTLYLQMNSLRAEDTAVYYCAKGTYSWYFDLWGRGTLVTVSS VL: not shown | -54 | -8 | -45 |  |  |  |  |  | 
9 | H1xH29283P2 (antibody, V domains shown) VH: QVQLVQSGTEVKKPGSSVKVSCKASGGTFSRYTFSWVRQAPGQGLEWMGGIIPIFGTTNYAQKFQGRVTITTDESTSTVYMELSSLRSEDTAVYYCTRGGRYGWFDPWGQGTLVTVSS VL: not shown |  |  |  | 26 | 24 |  |  |  | 
10 | H1H27762P2-N297Q (antibody, V domains shown, Human IgG1 Fc with N297Q; also called H1H27762P-N297Q) VH: QVQLVQSGAEVKKPGSSVKVSCKASGGTFSRYDISWVRQAPGQGLEWMGGIIPIFGTSNYAQKFQGRVTITTDESTSTVYMELSSLRSEDTAVYYCARGGRYGWFDPWGQGTLVTVSS VL: not shown | -58 | -16 | -65 |  |  |  |  |  | 
11 | H1H27754P-N297Q (antibody, V domains shown, Human IgG1 Fc with N297Q) VH: EVQLVESGGGLVQPGGSLRLSCAASGFTFRTYAMTWVRQAPGKGLDWVSAITGDGGNTYYADSVKGRFTISRDNSKNTLYLQMNSLRAEDTAIYYCAKDQRFSFALYYFDYWGQGTLVTVSS VL: DIQMTQSPSSVSASVGDRVTITCRASQGISSWLAWYQQKPGNAPKLLIYAAFSLQSGVPSRFSGSGSGTDFTLTISSLQPEDFATYYCQQANNFPWTFGQGTKVEIKR | -42 | -9 | -44 |  |  |  |  |  | 
12 | H2aM25695N (antibody, mouse IgG2a, V domains shown, mouse IgG2a Fc) VH: QVQLQESGPGLVKPSETLSLTCTVTGGSISRNYWSWIRQPPGKGLEWIGYIYYSGSINYNPSLKSRVTISVDMSKNQFSLKLNSVTAADTAVYYCARDRWNWKYGMDVWGQGTTVIVSS VL: EIVLTQSPGTLSLSPGERATLSCRASQTVRNSYLAWYHQKPGQAPRLLIYGASSRATGIPDRFSGSGSGTDFTLTISRLEPEDFAVYYCQQYGSSYWTFGQGTKMEIKR |  |  |  | 35 | 45 | 40 | 69 | > 170 | > 16
13 | H1H21234N (antibody, human IgG1, V domains shown, original human IgG1 Fc) VH: QVQLQESGPGLVKPSETLSLTCTVTGGSISRNYWSWIRQPPGKGLEWIGYIYYSGSIDYNPSLKSRVTISVDTSKNQFSLKLSSMTAADTAVYYCARDRWNWKYGMDVWGQGTTVIVSS VL: EIVLTQSPGTLSLSPGERATLSCRASQTVRNNYLAWYHQKPGQAPRLLIYGASSRATGIPDRFSGSGSGTDFTLTISRLEPEDFTVYYCHQYGNSPWTFGQGTKMEIKR |  |  |  | 32 | 31 | 36 | 64 | 0.71 | 4.3
14 | H1H27749P-N297Q (antibody, V domains shown, Human IgG1 Fc with N297Q) VH: QVQLQESGPGLVKPSETLSLTCTVSDGSISSYYWSWIRQPPGRGLEWIGFIYYSGSTSYNPSLKSRVTISVDTSMSQFSLKLRSVTAADTAVYYCARGSPFDYWGPGTLVTVSS VL: EIVLTQSPGTLSLSPGERATLSCRASQSVSSSYLAWYQQRPGQAPSLLISGASRRATGIPDRFSGSGSGTDFTLTIRRLEPEDFAMYYCQQYGSSPPTFGGGTKVEIKR | -51 | -1 | -21 |  |  |  |  |  | 
